The numbers were not newly measured in PMC4138051, which cites them from elsewhere.

Read-outs that look alike come from different tables or passages of the source.

The target in series [1] is MLL 1-160 (Homo sapiens) (UniProt Q03164).
For series [2], the target named is MLL MBM2 24-40 (Homo sapiens) (UniProt Q03164).
Series [3] deals with MLL MBM1 6-13 (Homo sapiens) (UniProt Q03164).
Series [4] deals with MLL 1-160 (Homo sapiens) (UniProt Q03164). The source holds these as a separate data set.

In the case of menin (from UniProt O00255), the Kd in series [1] was 10 nM; in series [2], 1000 nM; in series [3], 56 nM; in series [4], 1500 nM.
